{"source": "patent US11041003B2", "about": "“Crystal structure of Staphylococcus aureus clumping factor A in complex with fibrinogen derived peptide and uses thereof” (THE TEXAS A&M UNIVERSITY SYSTEM, priority 2008, dated 2021)", "key": {"αIIbβ3": {"target": "αIIbβ3 (Homo sapiens, UniProt P05106+P08514)", "test": "Integrin (αIIbβ3) inhibition assay: inhibition of full length Fg binding to αIIbβ3", "conditions": "10 nM full length Fg, inhibitory ELISA type assay", "experimental": "For αIIbβ3 inhibition assay. αIIbβ3Immulon 4HBX Microtiter 96-well plates (Thermo) were coated with αIIbβ3 ([…]) in TBS (25 mM Tris, 3 mM KCl, 140 mM NaCl, pH 7.4) over night at 4° C. The wells were washed with TBS containing 0.05% (w/v) Tween-20 (TBST). After blocking with 3% (w/v) BSA dissolved in TBS for 1 h at RT, 10 nM of full length Fg was applied in the presence of either WT γ^1-17, γ^1-17D16A or γ^1-17K12A peptides and plates were incubated at RT for another hour. The bound full length Fg was then detected by goat anti human Fg (1:1000 dilution, Sigma) antibody followed by horseradish peroxidase-conjugated rabbit anti-goat IgG antibody (1:1000 dilution, Cappel). After incubation with 0.4 mg/ml of substrate, o-phenylenediamine dihydrochloride (OPD, Sigma) dissolved in phosphate-citrate buffer, pH 5.0, bound antibodies were determined in an ELISA reader at 450 nm. The proteins, antibodies and peptides were diluted in TBST containing 1% (w/v) BSA, 2 mM MgCl2, 1 mM of CaCl2 and MnCl2.\nTo examine this possibility, the ability of the synthesized Fg WT g^1-17 and mutated peptides (g^1-17D16A and g^1-17K12A) to inhibit full length Fg binding to αIIbβ3 was analyzed by inhibitory ELISA type assay (FIG. 6)."}, "GST-Fg γ^1-17": {"target": "T1, GST-Fg γ^1-17 (Homo sapiens, UniProt P02679)", "T1 construct": "made in house; host or cells: Escherichia coli", "test": "ELISA-type binding of ClfA proteins to immobilized GST-Fg γ^1-17", "conditions": "GST Fg γ^1-17 coated in microtiter wells; read-out: apparent Kd for GST-Fg γ^1-17"}}, "note": "Where a SMILES comes first, the peptide text is derived from it.", "data": [{"compound": "CC(C)C[C@H](NC(=O)[C@H](Cc1c[nH]cn1)NC(=O)[C@H](Cc1c[nH]cn1)NC(=O)[C@H](CCC(N)=O)NC(=O)[C@H](CCC(N)=O)NC(=O)CNC(=O)[C@H](CCC(=O)O)NC(=O)CN)C(=O)NCC(=O)NCC(=O)N[C@@H](C)C(=O)N[C@@H](CCCCN)C(=O)N[C@@H](CCC(N)=O)C(=O)N[C@@H](C)C(=O)NCC(=O)N[C@@H](CC(=O)O)C(=O)N[C@H](C(=O)O)C(C)C", "note": "[g^1-17] (H-GEGQQHHLGGAKQAGDV-OH; N-terminus and C-terminus assumed)", "values": [{"measurement": "inhibition of full length Fg binding to αIIbβ3", "setting": "αIIbβ3", "value": "completely inhibited"}, {"measurement": "inhibition of full length Fg binding to αIIbβ3", "setting": "αIIbβ3; listed as Fg-γ^1-17", "value": "inhibits"}]}, {"compound": "ClfA229-545: recombinant His-tag ClfA construct, residues 229-545 of SEQ ID NO:35, composed only of the N2 N3 domains", "values": [{"measurement": "Kd", "setting": "GST-Fg γ^1-17", "value": 222, "unit": "nM"}]}, {"compound": "g^1-17K12A: Fg γ 395-411 peptide with Lys12→Ala (GEGQQHHLGGAAQAGDV)", "values": [{"measurement": "inhibition of full length Fg binding to αIIbβ3", "setting": "αIIbβ3", "value": "weakly inhibited"}, {"measurement": "inhibition of full length Fg binding to αIIbβ3", "setting": "αIIbβ3; listed as γ^1-17K12A", "value": "very little inhibitory effect"}]}]}
